According to ChEMBL document CHEMBL2073913, “Functional multidrug resistance protein (MRP1) lacking the N-terminal transmembrane domain” (J Biol Chem, 1998):

Substrate: NC(CCC(=O)NC(CNCC(=O)O)CSCCN1C(=O)C=CC1=O)C(=O)O
Test: TP_TRANSPORTER: uptake in membrane vesicles from MRP1-expressing Sf9 cells
Assay type: functional, cell membranes, Membrane vesicle

B1: Multidrug resistance-associated protein 1 (Homo sapiens) (protein)
chain: MALRGFCSADGSDPLWDWNVTWNTSNPDFTKCFQNTVLVWVPCFYLWACFPFYFLYLSRHDRGYIQMTPLNKTKTALGFLLWIVCWADLFYSFWERSRGIFLAPVFLVSPTLLGITMLLATFLIQLERRKGVQSSGIMLTFWLVALVCALAILRSKIMTALKEDAQVDLFRDITFYVYFSLLLIQLVLSCFSDRSPLFSETIHDPNPCPESSASFLSRITFWWITGLIVRGYRQPLEGSDLWSLNKEDTSEQVVPVLVKNWKKECAKTRKQPVKVVYSSKDPAQPKESSKVDANEEVEALIVKSPQKEWNPSLFKVLYKTFGPYFLMSFFFKAIHDLMMFSGPQILKLLIKFVNDTKAPDWQGYFYTVLLFVTACLQTLVLHQYFHICFVSGMRIKTAVIGAVYRKALVITNSARKSSTVGEIVNLMSVDAQRFMDLATYINMIWSAPLQVILALYLLWLNLGPSVLAGVAVMVLMVPVNAVMAMKTKTYQVAHMKSKDNRIKLMNEILNGIKVLKLYAWELAFKDKVLAIRQEELKVLKKSAYLSAVGTFTWVCTPFLVALCTFAVYVTIDENNILDAQTAFVSLALFNILRFPLNILPMVISSIVQASVSLKRLRIFLSHEELEPDSIERRPVKDGGGTNSITVRNATFTWARSDPPTLNGITFSIPEGALVAVVGQVGCGKSSLLSALLAEMDKVEGHVAIKGSVAYVPQQAWIQNDSLRENILFGCQLEEPYYRSVIQACALLPDLEILPSGDRTEIGEKGVNLSGGQKQRVSLARAVYSNADIYLFDDPLSAVDAHVGKHIFENVIGPKGMLKNKTRILVTHSMSYLPQVDVIIVMSGGKISEMGSYQELLARDGAFAEFLRTYASTEQEQDAEENGVTGVSGPGKEAKQMENGMLVTDSAGKQLQRQLSSSSSYSGDISRHHNSTAELQKAEAKKEETWKLMEADKAQTGQVKLSVYWDYMKAIGLFISFLSIFLFMCNHVSALASNYWLSLWTDDPIVNGTQEHTKVRLSVYGALGISQGIAVFGYSMAVSIGGILASRCLHVDLLHSILRSPMSFFERTPSGNLVNRFSKELDTVDSMIPEVIKMFMGSLFNVIGACIVILLATPIAAIIIPPLGLIYFFVQRFYVASSRQLKRLESVSRSPVYSHFNETLLGVSVIRAFEEQERFIHQSDLKVDENQKAYYPSIVANRWLAVRLECVGNCIVLFAALFAVISRHSLSAGLVGLSVSYSLQVTTYLNWLVRMSSEMETNIVAVERLKEYSETEKEAPWQIQETAPPSSWPQVGRVEFRNYCLRYREDLDFVLRHINVTINGGEKVGIVGRTGAGKSSLTLGLFRINESAEGEIIIDGINIAKIGLHDLRFKITIIPQDPVLFSGSLRMNLDPFSQYSDEEVWTSLELAHLKDFVSALPDKLDHECAEGGENLSVGQRQLVCLARALLRKTKILVLDEATAAVDLETDDLIQSTIRTQFEDCTVLTIAHRLNTIMDYTRVIVLDKGEIQEYGAPSDLLQQRGLFYSMAKDAGLV
- Km: 155 µM
